# The supplement of paper PMC9428881
# ± gives the standard error.
# Test: background-corrected fluorescence of 3'-dye-labeled ssDNA relative to brightest sequence (3'-GCGCG) (fraction); higher = brighter dye fluorescence (less quenching)
# Summary of the method: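 Single-stranded DNA was built on glass slides by light-directed phosphoramidite synthesis, ending in a 3' Cy3 or Cy5 dye beside each of 1024 permuted pentamers. Arrays were washed in acetonitrile for 2 h at r.t., then scanned at 532 or 635 nm before and after overnight ethylenediamine/ethanol deprotection. Each value averages 10 features per array and at least 3 syntheses. Fluorescence, corrected by subtracting unlabeled-oligo background, is scaled to the brightest sequence.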
Sequence,background-corrected fluorescence (dye: Cy3 (3' terminal)),background-corrected fluorescence (dye: Cy5 (3' terminal))
TTTTTTGATGCTGATCATCATTTTTTTTTTTTTTTCACGG [GGCAC],0.584 ± 0.023,0.525 ± 0.03
TTTTTTCAGCAGCAGCATCATTTTTTTTTTTTTTTGTTTG,0.517 ± 0.028,0.33 ± 0.029
TTTTTTGCGCATCATGCTCATTTTTTTTTTTTTTTATGAG [GAGTA],0.602 ± 0.036,0.466 ± 0.04
TTTTTGCATCATGATGATGCTTTTTTTTTTTTTTTTGCCA [ACCGT],0.519 ± 0.0069,0.403 ± 0.029
TTTTTTGATGCTGCTCATGATTTTTTTTTTTTTTTCAAGC [CGAAC],0.514 ± 0.024,0.426 ± 0.07
TTTTTTGATGATGATGCTGCTTTTTTTTTTTTTTTCCCAA [AACCC],0.485 ± 0.031,0.386 ± 0.022
TTTTTTCATGCTGCTCATCATTTTTTTTTTTTTTTGAAGG [GGAAG],0.607 ± 0.026,0.512 ± 0.025
TTTTTTCATGCTCAGCATGATTTTTTTTTTTTTTTGAGTC [CTGAG],0.469 ± 0.015,0.359 ± 0.017
TTTTTTGCTGATGATGCGCATTTTTTTTTTTTTTTACCAT,0.499 ± 0.026,0.364 ± 0.024
TTTTTTCATGCGCAGCATGATTTTTTTTTTTTTTTGATTC [CTTAG],0.451 ± 0.026,0.317 ± 0.02
TTTTTTGAGCATGATGATGATTTTTTTTTTTTTTTCTCCC [CCCTC],0.377 ± 0.029,0.269 ± 0.018
TTTTTTCATCATGATCATGATTTTTTTTTTTTTTTGGCGC [CGCGG],0.627 ± 0.028,0.551 ± 0.064
TTTTTGCATGATGCTGCTGCTTTTTTTTTTTTTTTTCAAA [AAACT],0.562 ± 0.024,0.462 ± 0.051
TTTTTGCATCAGCAGCAGCATTTTTTTTTTTTTTTTGTTT,0.511 ± 0.028,0.396 ± 0.06
TTTTTTGCGCATCATGCGCATTTTTTTTTTTTTTTATGAT [TAGTA],0.615 ± 0.028,0.471 ± 0.03
TTTTTTGCTGCGCATCATCATTTTTTTTTTTTTTTAATGG [GGTAA],0.645 ± 0.023,0.51 ± 0.048
TTTTTTGATGCTCATGATCATTTTTTTTTTTTTTTCAGCG [GCGAC],0.622 ± 0.036,0.502 ± 0.043
TTTTTGCATGAGCATGCTCATTTTTTTTTTTTTTTTCTAG [GATCT],0.52 ± 0.027,0.401 ± 0.031
TTTTTGCATGCTCATGCTGATTTTTTTTTTTTTTTTAGAC [CAGAT],0.463 ± 0.023,0.369 ± 0.015
TTTTTTGCTGATGATCATGATTTTTTTTTTTTTTTACCGC [CGCCA],0.592 ± 0.014,0.406 ± 0.026

Sequence,background-corrected fluorescence (dye: Cy3 (3' terminal)),background-corrected fluorescence (dye: Cy5 (3' terminal))
TTTTTTGATCATGCTGCTGCTTTTTTTTTTTTTTTCGAAA [AAAGC],0.576 ± 0.032,0.475 ± 0.057
TTTTTTGATGATGATCATGATTTTTTTTTTTTTTTCCCGC [CGCCC],0.51 ± 0.013,0.419 ± 0.034
TTTTTTCAGCATGATGCTGATTTTTTTTTTTTTTTGTCAC [CACTG],0.417 ± 0.0042,0.336 ± 0.022
TTTTTTGCTGCTCAGCATGATTTTTTTTTTTTTTTAAGTC [CTGAA],0.438 ± 0.029,0.349 ± 0.015
TTTTTGCATGATGATCAGCATTTTTTTTTTTTTTTTCCGT [TGCCT],0.613 ± 0.021,0.484 ± 0.027
TTTTTGCATCATGATGATCATTTTTTTTTTTTTTTTGCCG [GCCGT],0.519 ± 0.027,0.389 ± 0.029
TTTTTGCAGCATGATCAGCATTTTTTTTTTTTTTTTTCGT [TGCTT],0.564 ± 0.013,0.432 ± 0.025
TTTTTTGATGCTCATGATGATTTTTTTTTTTTTTTCAGCC [CCGAC],0.462 ± 0.011,0.321 ± 0.042
TTTTTGCATGAGCAGCATCATTTTTTTTTTTTTTTTCTTG [GTTCT],0.489 ± 0.023,0.371 ± 0.032
TTTTTTGCGCATGCTCATCATTTTTTTTTTTTTTTATAGG [GGATA],0.628 ± 0.019,0.516 ± 0.03
TTTTTTGATGATGAGCATGCTTTTTTTTTTTTTTTCCCTA [ATCCC],0.458 ± 0.025,0.35 ± 0.019
TTTTTGCATGATGATGCTCATTTTTTTTTTTTTTTTCCAG [GACCT],0.47 ± 0.02,0.377 ± 0.02
TTTTTTCATGATGATGATGCTTTTTTTTTTTTTTTGCCCA [ACCCG],0.479 ± 0.026,0.389 ± 0.058
TTTTTTGATCAGCAGCATGATTTTTTTTTTTTTTTCGTTC [CTTGC],0.417 ± 0.036,0.321 ± 0.028
TTTTTGCAGCATCATCATGATTTTTTTTTTTTTTTTTGGC [CGGTT],0.556 ± 0.017,0.457 ± 0.023
TTTTTTGCTCAGCATGAGCATTTTTTTTTTTTTTTAGTCT [TCTGA],0.472 ± 0.018,0.368 ± 0.029
TTTTTTGATGCTGATGCGCATTTTTTTTTTTTTTTCACAT [TACAC],0.521 ± 0.02,0.368 ± 0.016
TTTTTTGAGCATGATCATGATTTTTTTTTTTTTTTCTCGC [CGCTC],0.548 ± 0.032,0.412 ± 0.035
TTTTTTGCTCATGCTCATGATTTTTTTTTTTTTTTAGAGC [CGAGA],0.565 ± 0.022,0.435 ± 0.046
TTTTTGCATGATCATGAGCATTTTTTTTTTTTTTTTCGCT,0.486 ± 0.0071,0.392 ± 0.085

Sequence,background-corrected fluorescence (dye: Cy3 (3' terminal)),background-corrected fluorescence (dye: Cy5 (3' terminal))
TTTTTTGATGATGCTGAGCATTTTTTTTTTTTTTTCCACT [TCACC],0.444 ± 0.029,0.322 ± 0.023
TTTTTGCATGCTGAGCATCATTTTTTTTTTTTTTTTACTG [GTCAT],0.499 ± 0.024,0.373 ± 0.027
TTTTTGCATCATCATCATGCTTTTTTTTTTTTTTTTGGGA [AGGGT],0.757 ± 0.01,0.725 ± 0.054
TTTTTTCATGATGCGCAGCATTTTTTTTTTTTTTTGCATT [TTACG],0.514 ± 0.018,0.395 ± 0.019
TTTTTTGCTCATCATGCTCATTTTTTTTTTTTTTTAGGAG [GAGGA],0.597 ± 0.023,0.507 ± 0.034
TTTTTTGAGCATGATGCTGATTTTTTTTTTTTTTTCTCAC [CACTC],0.391 ± 0.046,0.314 ± 0.022
TTTTTTCAGCATGATGCGCATTTTTTTTTTTTTTTGTCAT [TACTG],0.529 ± 0.025,0.39 ± 0.03
TTTTTGCATGATCATCATGCTTTTTTTTTTTTTTTTCGGA [AGGCT],0.734 ± 0.076,0.648 ± 0.024
TTTTTTGATGCGCATGATGATTTTTTTTTTTTTTTCATCC [CCTAC],0.38 ± 0.02,0.273 ± 0.017
TTTTTGCATGCTGAGCATGATTTTTTTTTTTTTTTTACTC [CTCAT],0.385 ± 0.03,0.273 ± 0.018
TTTTTTGCTGATGCTCATGATTTTTTTTTTTTTTTACAGC [CGACA],0.508 ± 0.023,0.404 ± 0.024
TTTTTTGAGCATCAGCATCATTTTTTTTTTTTTTTCTGTG [GTGTC],0.559 ± 0.039,0.425 ± 0.021
TTTTTTGCTGCTGATGATCATTTTTTTTTTTTTTTAACCG [GCCAA],0.545 ± 0.036,0.42 ± 0.035
TTTTTTCATGATGCTCATGCTTTTTTTTTTTTTTTGCAGA [AGACG],0.682 ± 0.017,0.552 ± 0.035
TTTTTTCATGATGATCATGCTTTTTTTTTTTTTTTGCCGA [AGCCG],0.621 ± 0.024,0.547 ± 0.034
TTTTTTGATGAGCAGCAGCATTTTTTTTTTTTTTTCCTTT,0.492 ± 0.016,0.347 ± 0.023
TTTTTTGATGCTGCTCATCATTTTTTTTTTTTTTTCAAGG [GGAAC],0.579 ± 0.028,0.489 ± 0.029
TTTTTTCATCATGCTCATCATTTTTTTTTTTTTTTGGAGG,0.689 ± 0.0083,0.534 ± 0.029
TTTTTTGCTGATGATGATGCTTTTTTTTTTTTTTTACCCA,0.462 ± 0.029,0.351 ± 0.019
TTTTTTCAGCAGCATCATCATTTTTTTTTTTTTTTGTTGG [GGTTG],0.582 ± 0.0069,0.471 ± 0.028
